The numbers were not newly measured in publication PMC3694163, which cites them from elsewhere.

One data set concerns the target IGFBP6 (Homo sapiens) (UniProt P24592).
The target of another data set is IR (Homo sapiens) (UniProt P06213).

Sequence of insulin (P01308 90-110): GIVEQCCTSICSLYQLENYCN
Sequence of IGFBP6 (Homo sapiens) (P24592 28-240): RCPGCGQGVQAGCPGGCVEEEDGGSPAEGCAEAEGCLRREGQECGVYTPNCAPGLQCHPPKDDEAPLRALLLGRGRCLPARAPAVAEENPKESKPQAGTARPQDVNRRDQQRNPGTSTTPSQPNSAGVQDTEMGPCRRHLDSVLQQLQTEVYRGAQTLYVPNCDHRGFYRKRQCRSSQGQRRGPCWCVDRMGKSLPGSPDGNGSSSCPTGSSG

Broadly, the Kd is the constant that tells how readily two partners part at equilibrium. For the substance IGF-II (from UniProt P01344), the Kd with IGFBP6 (Homo sapiens) is 5.7 nM.
For the substance insulin (from UniProt P01308), the Kd with IR (Homo sapiens) was 0.1 nM.
